Measured values from US20210269480A1 (published 2021).
*1 amine or outer side, *2 acyl side, *3 side chain or, on linkers, in order; H or OH if unused. Bridges are numbered along the chain shown (N, C = ends). Primed or numbered codes have the meaning given here. Where no end group is shown, it is not given here. [ ]: non-standard residue; d: D form. TATA = O=C(CC[*:1])N1CN(C(=O)CC[*:2])CN(C(=O)CC[*:3])C1; 1Nal = N[C@@H](Cc1cccc2ccccc12)C(=O)O; Glutaryl = O=C(CCCC(=O)[*:2])[*:1]; Cya = N[C@@H](CS(=O)(=O)O)C(=O)O; Hyp = O=C(O)[C@@H]1C[C@@H](O)CN1; dCya = N[C@H](CS(=O)(=O)O)C(=O)O; hArg = N=C(N)NCCCC[C@H](N)C(=O)O; Cit = NC(=O)NCCC[C@H](N)C(=O)O; MMAE = monomethyl auristatin E; PABC′ = p-aminobenzylcarbamate; βAla = NCCC(=O)O; Sar = CNCC(=O)O

T1: human Nectin-4 (human, UniProt Q96NY8 32-349)
T1 construct: a Gly32-Ser349 FLAG construct is described only under the SPR assay; also called PVRL4
T1 sequence (looked up): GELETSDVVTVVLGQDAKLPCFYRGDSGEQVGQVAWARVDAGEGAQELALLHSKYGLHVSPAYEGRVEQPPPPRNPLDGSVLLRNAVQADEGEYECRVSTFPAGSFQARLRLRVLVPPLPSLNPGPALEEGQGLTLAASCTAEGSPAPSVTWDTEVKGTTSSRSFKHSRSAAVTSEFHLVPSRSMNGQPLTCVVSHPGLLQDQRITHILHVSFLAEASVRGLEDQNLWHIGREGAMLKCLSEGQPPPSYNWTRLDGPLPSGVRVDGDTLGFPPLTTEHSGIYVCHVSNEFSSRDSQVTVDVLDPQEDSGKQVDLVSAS

T2: Human Nectin-4 (residues Gly32-Ser349) with C-terminal FLAG tag, biotinylated (human, UniProt Q96NY8 32-349, randomly biotinylated with EZ-Link Sulfo-NHS-LC-LC-Biotin)
T2 construct: range 32-349; Captured through biotin on a streptavidin CM5 chip in the SPR assay; also called PVRL4; not shown: C-terminal FLAG tag
T2 sequence (looked up): T1 sequence (looked up)

B1: BCY8783 (peptide)
peptide: {MMAE-PABC′-Cit-Val-Glutaryl-βAla}-[Sar][Sar][Sar][Sar][Sar][Sar][Sar][Sar][Sar][Sar]CP[1Nal][dCya]CM[hArg]DWSTP[Hyp]WC
modifications: linker 11-15-25 via TATA
notes: also called MMAE-PABC-Cit-Val-Glutaryl-BCY8269

Key:
human Nectin-4 = biological target: T1, human Nectin-4; test: FP competition, tracer SEQ ID NO 217
Protocol: Peptides were diluted to an appropriate concentration in assay buffer as described in the direct binding assay with a maximum of 5% DMSO, then serially diluted 1 in 2. […] Measurements were conducted as for the direct binding assay, however the gain was determined prior to the first measurement. Data analysis was in Systat Sigmaplot version 12.0 where the mP values were fit to a user defined cubic equation to generate a Ki value: […]

[1] = biological target: Human Nectin-4 (residues Gly32-Ser349) with C-terminal FLAG tag, biotinylated (human) (UniProt Q96NY8); test: SPR (Biacore), biotinylated human Nectin-4 on streptavidin chip
[2] = biological target: T2, Human Nectin-4 (residues Gly32-Ser349) …; test: as above

Row | Binder | Ki (human Nectin-4) | Kd [1] | Kd [2]
1 | Ac-CP[1Nal][dD]CM[hArg][Cya]WSTP[Hyp]WC (linker 1-5-15 via TATA (inferred)) [BCY8161] | 4 nM | 0.94 nM | 
2 | {Ac-βAla}-[Sar][Sar][Sar][Sar][Sar][Sar][Sar][Sar][Sar][Sar]CP[1Nal][dD]CM[hArg][Cya]WSTP[Hyp]WC (linker 11-15-25 via TATA (inferred)) [BCY8278] |  | 1.92 nM | 
3 | {Ac-βAla}-[Sar][Sar][Sar][Sar][Sar][Sar][Sar][Sar][Sar][Sar]CP[1Nal][dCya]CM[hArg][Cya]WSTP[Hyp]WC (linker 11-15-25 via TATA (inferred)) [BCY8280] |  | 2 nM | 
4 | {Ac-βAla}-[Sar][Sar][Sar][Sar][Sar][Sar][Sar][Sar][Sar][Sar]CP[1Nal][dD]CM[Cya][Cya]WSTP[Hyp]WC (linker 11-15-25 via TATA (inferred)) [BCY8281] |  | 6.11 nM | 
5 | {MMAE-PABC′-Cit-Val-Glutaryl-βAla}-[Sar][Sar][Sar][Sar][Sar][Sar][Sar][Sar][Sar][Sar]CP[1Nal][dCya]CM[hArg][Cya]WSTP[Hyp]WC (linker 11-15-25 via TATA (inferred)) [BCY8784] |  | 0.662 nM | 
6 | B1 |  |  | 0.804 nM
